These substances were tested against organic anion transporting polypeptide 1B1 (UniProt Q9Y6L6) (assay: cell-based or functional assay).
organic anion transporting polypeptide 1B1, sequence (Q9Y6L6 whole entry): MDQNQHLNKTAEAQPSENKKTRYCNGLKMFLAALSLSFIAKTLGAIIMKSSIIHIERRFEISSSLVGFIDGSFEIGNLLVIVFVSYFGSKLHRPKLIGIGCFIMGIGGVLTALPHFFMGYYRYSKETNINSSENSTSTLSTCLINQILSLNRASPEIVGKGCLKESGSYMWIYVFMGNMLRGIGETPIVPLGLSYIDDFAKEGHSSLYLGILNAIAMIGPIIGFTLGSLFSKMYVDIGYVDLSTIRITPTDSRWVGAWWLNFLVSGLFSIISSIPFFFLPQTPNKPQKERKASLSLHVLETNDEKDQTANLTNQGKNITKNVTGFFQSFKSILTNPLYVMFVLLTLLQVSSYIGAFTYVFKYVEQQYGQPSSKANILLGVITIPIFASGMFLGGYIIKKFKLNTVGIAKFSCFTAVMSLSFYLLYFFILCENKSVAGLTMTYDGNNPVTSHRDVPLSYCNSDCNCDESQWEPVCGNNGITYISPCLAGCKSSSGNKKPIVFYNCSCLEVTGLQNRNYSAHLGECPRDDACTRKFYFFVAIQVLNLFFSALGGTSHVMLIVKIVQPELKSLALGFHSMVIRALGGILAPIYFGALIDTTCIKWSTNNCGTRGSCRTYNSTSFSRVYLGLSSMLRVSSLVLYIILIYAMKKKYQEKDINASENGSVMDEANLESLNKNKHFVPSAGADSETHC

Substance	OATP1B13 IC50 [µM]
3-[D-Ala]-4-[(2S,3R)-3-methyl-2-(methylamino)-5-((S)-2-methylpiperidin-1-yl)pentanoyl]-cyclosporin (peptide)	1.7
3-[D-Ala]-4[(2S,3S)-2-Amino-4-(4-ethyl-piperazin-1-yl)-3-methyl-butanoyl]-cyclosporin (peptide)	5.1
3-[D-Ala]-4-[(2S,3S)-4-(2-(4-cyclohexylpiperazin-1-yl)-2-oxoethoxy)-3-methyl-2-(methylamino)butanoyl]-cyclosporin (peptide)	3.5
3-[D-Ala]-4-[(2S,3R)-3,6-dimethyl-2-(methylamino)-6-((4-methylpiperazine-1-carbonyl)oxy)heptanoyl]-cyclosporin (peptide)	4.7
3-[D-Ala]-4-[(2S,3S)-3-methyl-2-(methylamino)-4-(((S)-tetrahydrofuran-3-yl)oxy)butanoyl]-cyclobsporin (peptide)	1.9
3-[D-Ala]-4-[(2S,3S)-4-(((S)-4-isopropylmorpholin-2-yl)methoxy)-3-methyl-2-(methylamino)butanoyl]-cyclosporin (peptide)	4.3
3-[D-Ala]-4-[(2S,3R)-3-methyl-2-(methylamino)-5-((S)-3-oxotetrahydro-1H-oxazolo[3,4-a]pyrazin-7(3H)-yl)pentanoyl]-cyclosporin (peptide)	2.8
3-[D-Ala]-4-[(2S,3R)-3-methyl-4-(methyl(pyridin-3-ylmethyl)amino)-2-(methylamino)butanoyl]-cyclosporin (peptide)	1
3-[D-Ala]-4-[(2S,3R)-4-(3-methoxyazetidin-1-yl)-3-methyl-2-(methylamino)butanoyl]-cyclosporin (peptide)	4.2
3-[D-Ala]-4[(2S,3S)-2-Amino-4-[4-(2-methoxy-ethyl)-piperazin-1-yl]-3-methyl-butanoyl]-cyclosporin (peptide)	3.2
3-[D-Ala]-4-[(2S,3R)-3-methyl-2-(methylamino)-4-(1,4-dioxa-8-azaspiro[4.5]decan-8-yl)butanoyl]-cyclosporin (peptide)	2.1
3-[D-Ala]-4-[(2S,3S)-4-(2-((2R,5R)-2,5-dimethylmorpholino)ethoxy)-3-methyl-2-(methylamino)butanoyl]-cyclosporin (peptide)	3.6
3-[D-Ala]-4-[(2S,3S)-3-methyl-2-(methylamino)-4-(2-oxo-2-(piperazin-1-yl)ethoxy)butanoyl]-cyclosporin (peptide)	6.9
1-dihydro-3-[D-Ala]-4[(2S,3S)-2-Amino-4-[4-(2-methoxy-ethyl)-piperazin-1-yl]-3-methyl-butanoyl]-cyclosporin (peptide)	3.3
3-[D-Ala]-4-[(2S,3R)-3-methyl-2-(methylamino)-4-(4-(methylsulfonyl)piperidin-1-yl)butanoyl]-cyclosporin (peptide)	1.8
3-[D-Ala]-4-[(2S,3R)-6-(4-methoxypiperidin-1-yl)-3-methyl-2-(methylamino)hexanoyl]-cyclosporin (peptide)	4.3
3-[D-Ala]-4-[(2S,3R)-3-methyl-2-(methylamino)-6-(4-methylpiperazin-1-yl)-6-oxohexanoyl]-cyclosporin (peptide)	5.4
3-[D-Ala]-4-[(2S,3R)-4-(4-(ethoxycarbonyl)piperazin-1-yl)-3-methyl-2-(methylamino)butanoyl]-cyclosporin (peptide)	2.1
3-[D-Ala]-4[(2S,3R)-2-Amino-3-methyl-4-(4-oxetan-3-yl-piperazin-1-yl)]-butanoyl]-cyclosporin (peptide)	1.17
3-[D-Ala]-4-[(2S,3S)-3-methyl-2-(methylamino)-4-((morpholine-4-carbonyl)oxy)butanoyl]-cyclosporin (peptide)	2.3

Substance	OATP1B13 IC50 [µM]
3-[D-Ala]-4-[(2S,3S)-3-methyl-2-(methylamino)-4-(2-(4-methylpiperazin-1-yl)-2-oxoethoxy)butanoyl]-cyclosporin (peptide)	9.4
3-[D-Ala]-4-[(2S,3R)-3-methyl-2-(methylamino)-6-(((1-methylpiperidin-4-yl)carbamoyl)oxy)hexanoyl]-cyclosporin (peptide)	7.8
3-[D-Ala]-4-[(2S,3R)-3-methyl-2-(methylamino)-6-morpholino-6-oxohexanoyl]-cyclosporin (peptide)	4.8
3-[D-Ala]-4[(2S,3S)-2-Amino-3-methyl-4-morpholin-4-yl-butanoyl]-cyclosporin (peptide)	3.6
3-[D-Ala]-4-[(2S,3R)-4-(4-cyanopiperidin-1-yl)-3-methyl-2-(methylamino)butanoyl]-cyclosporin (peptide)	1.9
3-[D-Ala]-4[(2S,3S)-3-methyl-2-(methylamino)-4-(4-(methylsulfonyl)piperazin-1-yl)butanoyl]-cyclosporin (peptide)	0.4
3-[D-Ala]-4-[(2S,3R)-4-((2S,5S)-2,5-dimethylmorpholino)-3-methyl-2-(methylamino)butanoyl]-cyclosporin (peptide)	2.6
3-[D-Ala]-4[(2S,3R)-2-Amino-4-(4-ethyl-piperazin-1-yl)-butanoyl]-cyclosporin (peptide)	4.56
3-[D-Ala]-4-[(S)-4-methoxy-3-(methoxymethyl)-2-(methylamino)butanoyl]-cyclosporin (peptide)	2.6
3-[D-Ala]-4-[(2S,3R)-5-(4-cyanopiperidin-1-yl)-3-methyl-2-(methylamino)pentanoyl]-cyclosporin (peptide)	2.4
3-[D-Ala]-4-[(2S,3R)-4-((2-(dimethylamino)-2-oxoethyl)(methyl)amino)-3-methyl-2-(methylamino)butanoyl]-cyclosporin (peptide)	2.7
3-[D-Ala]-4-[(2S,3R)-3-methoxy-2-(methylamino)-4-morpholinobutanoyl]-cyclosporin (peptide)	0.9
3-[D-Ala]-4-[(2S,3R)-3-methyl-2-(methylamino)-4-(2-oxa-6-azaspiro[3.3]heptan-6-yl)butanoyl]-cyclosporin (peptide)	3.4
3-[D-Ala]-4[(2S,3R)-2-Amino-4-[4-(2-methoxy-ethyl)-piperazin-1-yl]-3-methyl-butanoyl]-cyclosporin (peptide)	6.1
3-[D-Ala]-4-[(2S,3R)-3-methyl-2-(methylamino)-6-((4-methylpiperazine-1-carbonyl)oxy)hexanoyl]-cyclosporin (peptide)	2.9
3-[D-Ala]-4[(2S,3S)-2-Amino-3-methyl-4-(4-oxetan-3-yl-piperazin-1-yl)-butanoyl]-cyclosporin (peptide)	1.8
3-[D-Ala]-4[(2S,3R)-2-Amino-4-(4-cyclobutyl-piperazin-1-yl)-butanoyl]-cyclosporin (peptide)	5.2
3-[D-Ala]-4-[(2S,3R)-4-((2-methoxyethyl)(methyl)amino)-3-methyl-2-(methylamino)butanoyl]-cyclosporin (peptide)	1.9
3-[D-Ala]-4-[(2S,3S)-4-hydroxy-3-methyl-2-(methylamino)butanoyl]-cyclosporin (peptide)	3.6

Source: patent US20140134132A1
